For 20 molecules, Kd results are on record in publication PMC5714123, “The SMAD3 transcription factor binds complex RNA structures with high affinity”.

The target of data set [1] is T1, SMAD3 MH1 (Homo sapiens, UniProt P84022 1-132). As to the kind of experiment: EMSA; Hill 1.1; EMSA: 25 mM Tris-HCl (pH not given for binding buffer; RNA stock pH 7.5), 115 mM KCl, 1 mM MgCl2, 1 mM DTT, 20 ng/ul poly I:C, 0.1 mg/ml BSA, 10% glycerol, on ice 2 h; 0.5x TBE gel at 4 C. Conditions: protein: recombinant; tags: 6xHis-SUMO cleaved; label: 5' 32P; structured, multi-loop. For orientation: In EMSA bound probe runs differently from free probe, usually more slowly.
T1 sequence (P84022 1-132): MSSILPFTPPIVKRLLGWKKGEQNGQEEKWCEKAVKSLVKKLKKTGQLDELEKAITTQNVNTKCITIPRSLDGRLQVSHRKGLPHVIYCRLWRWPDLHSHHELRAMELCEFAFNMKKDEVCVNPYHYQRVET

The target of data set [2] is T1, SMAD3 MH1. As to the kind of experiment: EMSA; Hill 1.9; EMSA: 25 mM Tris-HCl (pH not given for binding buffer; RNA stock pH 7.5), 115 mM KCl, 1 mM MgCl2, 1 mM DTT, 20 ng/ul poly I:C, 0.1 mg/ml BSA, 10% glycerol, on ice 2 h; 0.5x TBE gel at 4 C. Conditions: protein: recombinant, tags: 6xHis-SUMO cleaved.
In data set [3] the target is T1, SMAD3 MH1. As to the kind of experiment: EMSA; Hill 1.8; EMSA: 25 mM Tris-HCl (pH not given for binding buffer; RNA stock pH 7.5), 115 mM KCl, 1 mM MgCl2, 1 mM DTT, 20 ng/ul poly I:C, 0.1 mg/ml BSA, 10% glycerol, on ice 2 h; 0.5x TBE gel at 4 C. Conditions: protein: recombinant, tags: 6xHis-SUMO cleaved.
The target in data set [4] is T1, SMAD3 MH1. Briefly: EMSA; Hill 2.2; EMSA: 25 mM Tris-HCl (pH not given for binding buffer; RNA stock pH 7.5), 115 mM KCl, 1 mM MgCl2, 1 mM DTT, 20 ng/ul poly I:C, 0.1 mg/ml BSA, 10% glycerol, on ice 2 h; 0.5x TBE gel at 4 C. Conditions: protein: recombinant; tags: 6xHis-SUMO cleaved; label: 5' 32P; hairpin with 1x5 internal loop.
The target of data set [5] is T1, SMAD3 MH1. As to the kind of experiment: EMSA; Hill 3.0; EMSA: 25 mM Tris-HCl (pH not given for binding buffer; RNA stock pH 7.5), 115 mM KCl, 1 mM MgCl2, 1 mM DTT, 20 ng/ul poly I:C, 0.1 mg/ml BSA, 10% glycerol, on ice 2 h; 0.5x TBE gel at 4 C. Conditions: protein: recombinant; tags: 6xHis-SUMO cleaved; label: 5' 32P; hairpin.
Data set [6] addresses T1, SMAD3 MH1. As to the kind of experiment: EMSA; Hill 2.7; EMSA: 25 mM Tris-HCl (pH not given for binding buffer; RNA stock pH 7.5), 115 mM KCl, 1 mM MgCl2, 1 mM DTT, 20 ng/ul poly I:C, 0.1 mg/ml BSA, 10% glycerol, on ice 2 h; 0.5x TBE gel at 4 C. Conditions: protein: recombinant; tags: 6xHis-SUMO cleaved; label: 5' 32P; hairpin.
For data set [7], the target named is T1, SMAD3 MH1. Briefly: EMSA; Hill 2.1; EMSA: 25 mM Tris-HCl (pH not given for binding buffer; RNA stock pH 7.5), 115 mM KCl, 1 mM MgCl2, 1 mM DTT, 20 ng/ul poly I:C, 0.1 mg/ml BSA, 10% glycerol, on ice 2 h; 0.5x TBE gel at 4 C. Conditions: protein: recombinant; tags: 6xHis-SUMO cleaved; label: 5' 32P; hairpin with 6x3 internal loop.
The target in data set [8] is T1, SMAD3 MH1. As to the kind of experiment: EMSA; Hill 3.2; EMSA: 25 mM Tris-HCl (pH not given for binding buffer; RNA stock pH 7.5), 115 mM KCl, 1 mM MgCl2, 1 mM DTT, 20 ng/ul poly I:C, 0.1 mg/ml BSA, 10% glycerol, on ice 2 h; 0.5x TBE gel at 4 C. Conditions: protein: recombinant; tags: 6xHis-SUMO cleaved; label: 5' 32P; hairpin with single-stranded flanks.
The target of data set [9] is T1, SMAD3 MH1. As to the kind of experiment: EMSA; Hill 1.6; EMSA: 25 mM Tris-HCl (pH not given for binding buffer; RNA stock pH 7.5), 115 mM KCl, 1 mM MgCl2, 1 mM DTT, 20 ng/ul poly I:C, 0.1 mg/ml BSA, 10% glycerol, on ice 2 h; 0.5x TBE gel at 4 C. Conditions: protein: recombinant; tags: 6xHis-SUMO cleaved; label: 5' 32P; hairpin.
Data set [10] addresses T1, SMAD3 MH1. Briefly: EMSA; Hill 3.1; EMSA: 25 mM Tris-HCl (pH not given for binding buffer; RNA stock pH 7.5), 115 mM KCl, 1 mM MgCl2, 1 mM DTT, 20 ng/ul poly I:C, 0.1 mg/ml BSA, 10% glycerol, on ice 2 h; 0.5x TBE gel at 4 C. Conditions: protein: recombinant; tags: 6xHis-SUMO cleaved; label: 5' 32P; hairpin.
Data set [11] has as its target T1, SMAD3 MH1. Briefly: EMSA; Hill 3.4; EMSA: 25 mM Tris-HCl (pH not given for binding buffer; RNA stock pH 7.5), 115 mM KCl, 1 mM MgCl2, 1 mM DTT, 20 ng/ul poly I:C, 0.1 mg/ml BSA, 10% glycerol, on ice 2 h; 0.5x TBE gel at 4 C. Conditions: protein: recombinant; tags: 6xHis-SUMO cleaved; label: 5' 32P; hairpin.
Data set [12] deals with T1, SMAD3 MH1. As to the kind of experiment: EMSA; Hill 1.7; EMSA: 25 mM Tris-HCl (pH not given for binding buffer; RNA stock pH 7.5), 115 mM KCl, 1 mM MgCl2, 1 mM DTT, 20 ng/ul poly I:C, 0.1 mg/ml BSA, 10% glycerol, on ice 2 h; 0.5x TBE gel at 4 C. Conditions: protein: recombinant, tags: 6xHis-SUMO cleaved.
Data set [13] concerns the target T1, SMAD3 MH1. Briefly: EMSA; Hill 2.5; EMSA: 25 mM Tris-HCl (pH not given for binding buffer; RNA stock pH 7.5), 115 mM KCl, 1 mM MgCl2, 1 mM DTT, 20 ng/ul poly I:C, 0.1 mg/ml BSA, 10% glycerol, on ice 2 h; 0.5x TBE gel at 4 C. Conditions: protein: recombinant; tags: 6xHis-SUMO cleaved; label: 5' 32P; hairpin with 2x3 internal loop.
Data set [14] addresses T1, SMAD3 MH1. As to the kind of experiment: EMSA; Hill 3.6; EMSA: 25 mM Tris-HCl (pH not given for binding buffer; RNA stock pH 7.5), 115 mM KCl, 1 mM MgCl2, 1 mM DTT, 20 ng/ul poly I:C, 0.1 mg/ml BSA, 10% glycerol, on ice 2 h; 0.5x TBE gel at 4 C. Conditions: protein: recombinant; tags: 6xHis-SUMO cleaved; label: 5' 32P (EMSA); hairpin.
Setting [15] is: label: 5' 32P, hairpin with 6x3 internal loop.

B1: 11 VAI (structured_RNA)
RNA: GGGCACUCUUCCGUGGUCUGGUGGAUAAAUUCGCAAGGGUAUCAUGGCGGACGACCGGGGUUCGAACCCCGGAUCCGGCCGUCCGCCGUGAUCCAUGCGGUUACCGCCCGCGUGUCGAACCCAGGUGUGCGACGUCAGACAACGGGGGAGCGCUC
As usually defined, the Kd is the concentration at which binding is half-saturated. For the molecule B1, in the data set with SMAD3 MH1 [1], the dissociation constant (Kd) came out at 110 ± 20 nM.

B2: 3c hsa-miR-199a-1 stem loop (structured_RNA)
RNA: GGCCAACCCAGUGUUCAGACUACCUGUUCAGGAGGCUCUCAAUGUGUACAGUAGUCUGCACAUUGGUUAGGCC
B2: the Kd with SMAD3 MH1 [2] (label: 5' 32P, hairpin) worked out at 1250 ± 50 nM.

B3: 18 ai5-gamma D3 (structured_RNA)
RNA: GGGUAUAAAAAGCUAAUGCCAUAUUGUAAUGAUAUGGAUAAGAAUUAUUAUUCUAAAGAUGAAAAUCUGCUAACUUAUACUG
Consider B3, for which the equilibrium dissociation constant (Kd) with SMAD3 MH1 [3] (label: 5' 32P (EMSA), four-way junction with bulged stem) came out at 190 ± 30 nM.

B4: 17e D4a isolated apical loop (structured_RNA)
RNA: GGGUCUCGUAUUGCAGAUGACACAUCUGCCGUAACCAAUCGGGUAAAAGGUGUGUCAUCUGCAAUGCGAGAC
For the molecule B4, the Kd in the data set with SMAD3 MH1 [4] amounted to 400 ± 10 nM.

Consider GGACGUACUGCCAGAAGUGGGCGUUCGCGCGUACUCUGGUGGGUACGUCC (structured_RNA) [6b hsa-miR-509 central stem dSBE], for which the dissociation constant (Kd) with SMAD3 MH1 [5] was 3000 ± 300 nM.

B5: 9c cel-miR-84 stem loop (structured_RNA)
RNA: GGCAUCUGAGGUAGUAUGUAAUAUUGUAGACUGUCUAUAAUGUCCACAAUGUUUCAACUAACUCGGCUGCC
On to B5, for which the Kd with SMAD3 MH1 [6] was determined as 1600 ± 100 nM.

B6: 17d D4a isolated terminal loop (structured_RNA)
RNA: GGGUCUCGUAUUGCAGAAAUGACACAUCUUGCCCGUAACCAAUCGGGUAAGGUGUGUCAAAUCAAUGCGAGAC
For the molecule B6, in the data set with SMAD3 MH1 [7], the Kd turned out to be 570 ± 20 nM.

B7: 10 hsa-miR-21 extended (structured_RNA)
RNA: GGGUGUUUUGCCUACCAUCGUGACAUCUCCAUGGCUGUACCACCUUGUCGGGUAGCUUAUCAGACUGAUGUUGACUGUUGAAUCUCAUGGCAACACCAGUCGAUGGGCUGUCUGACAUUUUGGUAUCUUUCAUCUGACCAUCCAUAUCCAAUGUUCUCAG
Consider B7, for which the dissociation constant (Kd) with SMAD3 MH1 [8] was found to be 700 ± 60 nM.

As to GGACGUGAGGUAGUAUGUAAGCGUUCGCGCUUUCAACUAACUCGCGUCC (structured_RNA) [9a cel-miR-84 central stem], the Kd in the data set with SMAD3 MH1 [6] was found to be 2900 ± 100 nM.

Take GAUACUUGAAACUGUAAGGUUGGCGUAUC (structured_RNA) [20 NF-kB aptamer]: the equilibrium dissociation constant (Kd) with SMAD3 MH1 [3] (label: 5' 32P, hairpin with 4x3 internal loop) is 4400 ± 600 nM.

Take GGGUCUCGUAUUGCAGAAAUAAAUCAAGCGAGAC (structured_RNA) [17c D4a truncation 3]: the dissociation constant (Kd) in the data set with SMAD3 MH1 [9] worked out at 1500 ± 300 nM.

Turning to GGACGCUUAUCAGACUGAUGUUGUUCGCAACACCAGUCGAUGGGCGUCC (structured_RNA) [1a hsa-miR-21 central stem], the dissociation constant Kd in the data set with SMAD3 MH1 [10] stood at 2500 ± 100 nM.

Regarding GGACGCUUAUAAAACUGAUGUUGUUCGCAACACCAGUUUAUGGGCGUCC (structured_RNA) [1b hsa-miR-21 central stem dSBE], in the data set with SMAD3 MH1 [11], the Kd was 2700 ± 100 nM.

B8: 17a D4a truncation 1 (structured_RNA)
RNA: GGGUCUCGUAUUGCAGAAAUGACAACAUCUUUCGAGGUGGUCAAAUCAAGCGAGAC
B8: the dissociation constant Kd with SMAD3 MH1 [12] (setting [15]) was 340 ± 70 nM.

Regarding GGUCUGGGCGCAGCGCAAGCUGACGGUACAGGCC (structured_RNA) [21 RRE], in the data set with SMAD3 MH1 [13], the Kd was 3000 ± 300 nM.

B9: 19 dsDNA with 1 SBE (dsDNA)
DNA 1: GTATGTCTCAGATGAA
DNA 2: TTCATCTGAGACATAC
As to B9, the equilibrium dissociation constant (Kd) with SMAD3 MH1 [2] (label: 5' 32P on one strand, blunt) amounted to 190 ± 20 nM.

As to GGGUCUCGUAUUGCAGAAAUGACUUCGGUCAAAUCAAGAGAGAC (structured_RNA) [17b D4a truncation 2], in the data set with SMAD3 MH1 [3] (setting [15]), the dissociation constant Kd worked out at 480 ± 80 nM.

B10: 17 Group II intron D4A (structured_RNA)
RNA: GGGGUCUCGUAUUGCAGAAAUGACAACAUCUGCCGUAACCAAUCGGGUAAAAGGUGGUCAAAUCAAGCGAGAC
Regarding B10, in the data set with SMAD3 MH1 [12] (label: 5' 32P (EMSA), hairpin with 1x5 and 6x3 internal loops), the Kd amounted to 190 ± 10 nM.

B11: 16 30-bp hairpin (structured_RNA)
RNA: GGAUCGAUCGAUCGAUCGGCAUCGAUCGGCUUCGGCCGAUCGAUGCCGAUCGAUCGAUCGAUCC
For B11, the dissociation constant Kd with SMAD3 MH1 [14] stood at 4000 ± 200 nM.

In the case of GGACGUACUGCAGACAGUGGGCGUUCGCGCGUACGUCUGUGGGUACGUCC (structured_RNA) [6a hsa-miR-509 central stem], the Kd in the data set with SMAD3 MH1 [3] (label: 5' 32P, hairpin) was 2100 ± 300 nM.
